First the molecules themselves.
B1: La Cap N-terminal fragment of nonsense mutant pGLa1m4 (I443O, aa 1-442) (other)
chain: MSSLLNSLLPEYFKPKTNLNINSSRVQYGFNARIDMQYEDDSGTRKGSRPNAFMSNTVAFIGNYEGIIVDDIPILDGLRADIFDTHGDLDMGLVEDALSKSTMIRRNVPTYTAYASELLYKRNLTSLFYNMLRLYYIKKWGSIKYEKDAIFYDNGHACLLNRQLFPKSRDASLESSLSLPEAEIAMLDPGLEFPEEDVPAILWHGRVSSRATCILGQACSEFAPLAPFSIAHYSPQLTRKLFVNAPAGIEPSSGRYTHEDVKDAITILVSANQAYTDFEAAYLMLAQTLVSPVPRTAEASAWFINAGMVNMPTLSCANGYYPALTNVNPYHRLDTWKDTLNHWVAYPDMLFYHSVAMIESCYVELGNVARVSDSDAINKYTFTELSVQGRPVMNRGIIVDLTLVAMRTGREISLPYPVSCGLTRTDALLQGTEIHVPVVVKD
B2: La Cap N-terminal fragment of pGLa1d5 (aa 1-418) (other)
chain: MSSLLNSLLPEYFKPKTNLNINSSRVQYGFNARIDMQYEDDSGTRKGSRPNAFMSNTVAFIGNYEGIIVDDIPILDGLRADIFDTHGDLDMGLVEDALSKSTMIRRNVPTYTAYASELLYKRNLTSLFYNMLRLYYIKKWGSIKYEKDAIFYDNGHACLLNRQLFPKSRDASLESSLSLPEAEIAMLDPGLEFPEEDVPAILWHGRVSSRATCILGQACSEFAPLAPFSIAHYSPQLTRKLFVNAPAGIEPSSGRYTHEDVKDAITILVSANQAYTDFEAAYLMLAQTLVSPVPRTAEASAWFINAGMVNMPTLSCANGYYPALTNVNPYHRLDTWKDTLNHWVAYPDMLFYHSVAMIESCYVELGNVARVSDSDAINKYTFTELSVQGRPVMNRGIIVDLTLVAMRTGREISLPYPV
B3: La Cap N-terminal fragment of nonsense mutant pGLa1m5 (S419O, aa 1-418) (other)
chain: MSSLLNSLLPEYFKPKTNLNINSSRVQYGFNARIDMQYEDDSGTRKGSRPNAFMSNTVAFIGNYEGIIVDDIPILDGLRADIFDTHGDLDMGLVEDALSKSTMIRRNVPTYTAYASELLYKRNLTSLFYNMLRLYYIKKWGSIKYEKDAIFYDNGHACLLNRQLFPKSRDASLESSLSLPEAEIAMLDPGLEFPEEDVPAILWHGRVSSRATCILGQACSEFAPLAPFSIAHYSPQLTRKLFVNAPAGIEPSSGRYTHEDVKDAITILVSANQAYTDFEAAYLMLAQTLVSPVPRTAEASAWFINAGMVNMPTLSCANGYYPALTNVNPYHRLDTWKDTLNHWVAYPDMLFYHSVAMIESCYVELGNVARVSDSDAINKYTFTELSVQGRPVMNRGIIVDLTLVAMRTGREISLPYPV
B4: La Cap N-terminal fragment of pGLa1d6 (aa 1-401) (other)
chain: MSSLLNSLLPEYFKPKTNLNINSSRVQYGFNARIDMQYEDDSGTRKGSRPNAFMSNTVAFIGNYEGIIVDDIPILDGLRADIFDTHGDLDMGLVEDALSKSTMIRRNVPTYTAYASELLYKRNLTSLFYNMLRLYYIKKWGSIKYEKDAIFYDNGHACLLNRQLFPKSRDASLESSLSLPEAEIAMLDPGLEFPEEDVPAILWHGRVSSRATCILGQACSEFAPLAPFSIAHYSPQLTRKLFVNAPAGIEPSSGRYTHEDVKDAITILVSANQAYTDFEAAYLMLAQTLVSPVPRTAEASAWFINAGMVNMPTLSCANGYYPALTNVNPYHRLDTWKDTLNHWVAYPDMLFYHSVAMIESCYVELGNVARVSDSDAINKYTFTELSVQGRPVMNRGIIVDL
B5: La Cap N-terminal fragment of pGLa1d4 (aa 1-428) (other)
chain: MSSLLNSLLPEYFKPKTNLNINSSRVQYGFNARIDMQYEDDSGTRKGSRPNAFMSNTVAFIGNYEGIIVDDIPILDGLRADIFDTHGDLDMGLVEDALSKSTMIRRNVPTYTAYASELLYKRNLTSLFYNMLRLYYIKKWGSIKYEKDAIFYDNGHACLLNRQLFPKSRDASLESSLSLPEAEIAMLDPGLEFPEEDVPAILWHGRVSSRATCILGQACSEFAPLAPFSIAHYSPQLTRKLFVNAPAGIEPSSGRYTHEDVKDAITILVSANQAYTDFEAAYLMLAQTLVSPVPRTAEASAWFINAGMVNMPTLSCANGYYPALTNVNPYHRLDTWKDTLNHWVAYPDMLFYHSVAMIESCYVELGNVARVSDSDAINKYTFTELSVQGRPVMNRGIIVDLTLVAMRTGREISLPYPVSCGLTRTDAL
B6: La Cap N-terminal fragment of pGLa1d2 (aa 1-476) (other)
chain: MSSLLNSLLPEYFKPKTNLNINSSRVQYGFNARIDMQYEDDSGTRKGSRPNAFMSNTVAFIGNYEGIIVDDIPILDGLRADIFDTHGDLDMGLVEDALSKSTMIRRNVPTYTAYASELLYKRNLTSLFYNMLRLYYIKKWGSIKYEKDAIFYDNGHACLLNRQLFPKSRDASLESSLSLPEAEIAMLDPGLEFPEEDVPAILWHGRVSSRATCILGQACSEFAPLAPFSIAHYSPQLTRKLFVNAPAGIEPSSGRYTHEDVKDAITILVSANQAYTDFEAAYLMLAQTLVSPVPRTAEASAWFINAGMVNMPTLSCANGYYPALTNVNPYHRLDTWKDTLNHWVAYPDMLFYHSVAMIESCYVELGNVARVSDSDAINKYTFTELSVQGRPVMNRGIIVDLTLVAMRTGREISLPYPVSCGLTRTDALLQGTEIHVPVVVKDIDMPQYYNAIDKDVIEGQETVIKVKQLPPAMYPI
B7: La Cap fragment of pGLa1d8 (aa 98-443) (other)
chain: LSKSTMIRRNVPTYTAYASELLYKRNLTSLFYNMLRLYYIKKWGSIKYEKDAIFYDNGHACLLNRQLFPKSRDASLESSLSLPEAEIAMLDPGLEFPEEDVPAILWHGRVSSRATCILGQACSEFAPLAPFSIAHYSPQLTRKLFVNAPAGIEPSSGRYTHEDVKDAITILVSANQAYTDFEAAYLMLAQTLVSPVPRTAEASAWFINAGMVNMPTLSCANGYYPALTNVNPYHRLDTWKDTLNHWVAYPDMLFYHSVAMIESCYVELGNVARVSDSDAINKYTFTELSVQGRPVMNRGIIVDLTLVAMRTGREISLPYPVSCGLTRTDALLQGTEIHVPVVVKDI
B8: La Cap fragment of pGLa1d7 (aa 6-443) (other)
chain: NSLLPEYFKPKTNLNINSSRVQYGFNARIDMQYEDDSGTRKGSRPNAFMSNTVAFIGNYEGIIVDDIPILDGLRADIFDTHGDLDMGLVEDALSKSTMIRRNVPTYTAYASELLYKRNLTSLFYNMLRLYYIKKWGSIKYEKDAIFYDNGHACLLNRQLFPKSRDASLESSLSLPEAEIAMLDPGLEFPEEDVPAILWHGRVSSRATCILGQACSEFAPLAPFSIAHYSPQLTRKLFVNAPAGIEPSSGRYTHEDVKDAITILVSANQAYTDFEAAYLMLAQTLVSPVPRTAEASAWFINAGMVNMPTLSCANGYYPALTNVNPYHRLDTWKDTLNHWVAYPDMLFYHSVAMIESCYVELGNVARVSDSDAINKYTFTELSVQGRPVMNRGIIVDLTLVAMRTGREISLPYPVSCGLTRTDALLQGTEIHVPVVVKDI
B9: La Cap N-terminal fragment of pGLa1d1 (aa 1-502) (other)
chain: MSSLLNSLLPEYFKPKTNLNINSSRVQYGFNARIDMQYEDDSGTRKGSRPNAFMSNTVAFIGNYEGIIVDDIPILDGLRADIFDTHGDLDMGLVEDALSKSTMIRRNVPTYTAYASELLYKRNLTSLFYNMLRLYYIKKWGSIKYEKDAIFYDNGHACLLNRQLFPKSRDASLESSLSLPEAEIAMLDPGLEFPEEDVPAILWHGRVSSRATCILGQACSEFAPLAPFSIAHYSPQLTRKLFVNAPAGIEPSSGRYTHEDVKDAITILVSANQAYTDFEAAYLMLAQTLVSPVPRTAEASAWFINAGMVNMPTLSCANGYYPALTNVNPYHRLDTWKDTLNHWVAYPDMLFYHSVAMIESCYVELGNVARVSDSDAINKYTFTELSVQGRPVMNRGIIVDLTLVAMRTGREISLPYPVSCGLTRTDALLQGTEIHVPVVVKDIDMPQYYNAIDKDVIEGQETVIKVKQLPPAMYPIYTYGINTTEFYSDHFEDQVQVEMAPI
B10: La Cap N-terminal fragment of nonsense mutant pGLa1m3 (K506O, aa 1-505) (other)
chain: MSSLLNSLLPEYFKPKTNLNINSSRVQYGFNARIDMQYEDDSGTRKGSRPNAFMSNTVAFIGNYEGIIVDDIPILDGLRADIFDTHGDLDMGLVEDALSKSTMIRRNVPTYTAYASELLYKRNLTSLFYNMLRLYYIKKWGSIKYEKDAIFYDNGHACLLNRQLFPKSRDASLESSLSLPEAEIAMLDPGLEFPEEDVPAILWHGRVSSRATCILGQACSEFAPLAPFSIAHYSPQLTRKLFVNAPAGIEPSSGRYTHEDVKDAITILVSANQAYTDFEAAYLMLAQTLVSPVPRTAEASAWFINAGMVNMPTLSCANGYYPALTNVNPYHRLDTWKDTLNHWVAYPDMLFYHSVAMIESCYVELGNVARVSDSDAINKYTFTELSVQGRPVMNRGIIVDLTLVAMRTGREISLPYPVSCGLTRTDALLQGTEIHVPVVVKDIDMPQYYNAIDKDVIEGQETVIKVKQLPPAMYPIYTYGINTTEFYSDHFEDQVQVEMAPIDNG

Some results are limits rather than exact numbers.

The assay deals with T1, ScVLa capsid protein Cap, full size (697 amino acids) (ScVLa virus of Saccharomyces cerevisiae).
T1 chain: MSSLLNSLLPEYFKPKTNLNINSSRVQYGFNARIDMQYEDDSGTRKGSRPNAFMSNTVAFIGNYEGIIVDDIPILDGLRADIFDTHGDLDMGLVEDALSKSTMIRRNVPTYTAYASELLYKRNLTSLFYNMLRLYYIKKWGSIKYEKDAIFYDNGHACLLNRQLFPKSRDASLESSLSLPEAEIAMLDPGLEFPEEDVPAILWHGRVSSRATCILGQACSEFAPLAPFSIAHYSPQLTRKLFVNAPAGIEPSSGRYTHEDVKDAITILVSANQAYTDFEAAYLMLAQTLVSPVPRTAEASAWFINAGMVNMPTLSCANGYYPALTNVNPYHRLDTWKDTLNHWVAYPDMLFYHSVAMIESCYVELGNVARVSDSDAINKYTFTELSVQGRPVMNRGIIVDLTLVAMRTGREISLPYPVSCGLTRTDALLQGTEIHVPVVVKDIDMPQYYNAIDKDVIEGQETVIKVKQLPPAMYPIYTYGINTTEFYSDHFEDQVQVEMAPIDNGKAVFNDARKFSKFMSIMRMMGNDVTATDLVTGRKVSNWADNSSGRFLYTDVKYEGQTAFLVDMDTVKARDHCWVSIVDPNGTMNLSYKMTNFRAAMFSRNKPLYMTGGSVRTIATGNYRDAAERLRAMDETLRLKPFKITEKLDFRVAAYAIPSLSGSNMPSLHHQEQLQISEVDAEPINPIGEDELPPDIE
In words: cell-based or functional assay.
Regarding B1, the “Curing (%) of ScVLa” value came out at 100%.
As for B2, the figure is less than 10%.
As for B3, the figure is less than 10%; as for MSSLLNSLLP [La Cap N-terminal fragment of nonsense mutant pGLa1m6 (E11O, aa 1-10)], less than 10%.
For the molecule B4, the “Curing (%) of ScVLa” value was less than 10%.
The figure for B5 is 50%.
With B6, the “Curing (%) of ScVLa” value was determined as 100%.
Regarding B7, the “Curing (%) of ScVLa” value is less than 10%.
As for B8, the figure is less than 10%; as for B9, 100%.
The figure for B10 is 100%.

Source of the values: patent publication US5831013, “Capsid polypeptides and use to inhibit viral packaging” (The Research Foundation of State University of New York, dated 1998).
